Assay results: US20100159468A1

Target: Arf1-V5 (human) (UniProt P84077)
Test: cell-based or functional assay

Arf1-V5 (human), sequence (P84077 2-181): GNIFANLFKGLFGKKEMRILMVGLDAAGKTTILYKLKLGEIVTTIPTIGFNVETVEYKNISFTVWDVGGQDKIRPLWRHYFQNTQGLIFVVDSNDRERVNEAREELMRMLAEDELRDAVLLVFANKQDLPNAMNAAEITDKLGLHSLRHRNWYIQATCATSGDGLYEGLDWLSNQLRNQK

“GBF1-M832L-HA (hamster GBF1 with M830L, M832L relative to human GBF1, HA-tagged) (from UniProt Q9R1D7 1-1856)” was tested, and the Arf1-GTP level (GST-GGA3 pulldown, Western blot band intensity) in BFA-treated Vero cells expressing GBF1-M832L was 45 % of control and the Arf1-GTP level (GST-GGA3 pulldown, Western blot band intensity) in GCA-treated Vero cells expressing GBF1-M832L was 86 % of control.
